Data on one protein can be found in paper PMC5976436, “Structure of a TRPM2 channel in complex with Ca^2+ explains unique gating regulation” (eLife, 2018).

This series concerns the molecule itself. Briefly: cryo-EM structure; purified nvTRPM2 in Buffer A (20 mM Tris-HCl pH 8.0, 150 mM NaCl, 0.06% digitonin, 1 mM DTT), 5 mg/ml, trace amounts of Ca2+, no ADPR; C4 symmetry.

B1: Nematostella vectensis TRPM2 channel (transient receptor potential melastatin 2) (natural protein, UniProt A7T1N0 1-1551, looked up)
chain: MGKDSFTPLYDGGDSSHVHLNKFGSNQLSQSKKSWIARNFSRRECIRFVPKSHDVSRCKCGRPRERHSQQALESGQGSEEWNVASCTTKHPTNAYGEIDFEGYGGQKRAPYLRMSHDTDANLVITLMLKRWNLEIPNLVISVTGGAKSFVLKPRLREMFRRGLIKAAKTTGAWIITGGTNTGVMKHVGEAVKEQQLMFGSDTQVNVIGIATWGIVDKQSDLISEKNGKYPALYSMEPTPGHQGAMLDPNHSHFFLVDDGTEGKYGVEIGMRSRIEEAIMKVKTDSRSEAGSIGVPVVLLVLEGGPNTVATMYELIKKKVPAVVIDGSGRAASVVGFAYNHTIKRNVDGQTINVIDPQYEDEVRAKVVEVFGAKGADKTYSMIKDVLEDEKMISVYSLDGEISQDIDLAILKALLKANRSSPVAQLNLALAWNRIDLAKSDIFTEEQQWTTETLSAAMLTALLDDKAEFAELFLQNGLSMREFLSLDILCKLYAEVPGNTTIKPLLQKEMGKRQVKTIDMDVVGEVIEELMGDMFESYYRKDGHYFGELASYAEGLVLKNRKSSKDLLANINRIDPLPTPYLDVFLWAVLCNRRELARVLWEAGREPMAAALMASRLLKRMASRAQEDNTITDISSDLYDHARLFEERAVGVLDECFNENETLSQTLLVRELDHYSRMTALELAVSAESQDFIAHTSCQVLLTRLWMGTMAMNTRWWKVLVCLYLPVLIFPIIYFVPDEQHERQAAEREHQKSLNQKSSKVKSHKEKNDAPVVPVYRSKEEKAVSNDEEARVGTENEEEDFQLEDYIPEIREDDSMEVIMRNKKLGFCDRIMHFYSAPFSKFVGNVVGYLAFIFLYAYVVLFNFPRFDPAKTLGGIHPTEIVLYFWVFTILIEEIRQLAAKPPKYIKDKVSVYFSDTWNFVDIFSLTVFIIAIILRFFTNSRIFTASRIILSLDIIFFIVRSLQIFSVNRLLGPKLVMIQKMMQDLAQFIIILAVFTIAYGIALHAVMFPSPGIYARNNTWVTITSVVQYPYWQMYGELFLDEIQGEKPKEFGEVDPDGRWLSPLLLAIYMVFTNILLLNLLIAIFNYTFERVQEDSDKVWKFQRYDLVQEYHSRPVFAPPLVLLGHILIFIRWVWRMCRCGHPPRGSTMKIGLSPAEMEQMDNWEFQAAEMYIHQQQQKNSGTLEERVRALGDRVDCINSQLNRVLDSMSGTRAHALTDGNGLEGGHDSEGRLARMEVELSSNSESLQKILALLQQQPPVKGQAAVPIQLTLLHYKARSSPYPGSTAKRFAVQDNMVDWQVPFPDYKPVNYTAPVVLANPVWADKDLMAMSPRPELPYNQMDHTCNVNRVSYNGTYVVKDGLPLNPMGRTGMQGRGLLGRFGPNHAADPVVTRWKRTSAGVMLQGGKKVLEFVAIQRKDNNQWAIPGGMVEPGQLVTQALKAEFGEEAMAKLNVSQEEKERIAKQIERLFQQGQEIYKGYVDDPRNTDNAWMETVAVNFHDDKGDLFGDITLQAGDDAAAVRWQRVSGNIPLYASHVSILEKVAKMRDAAF
modifications: two N-acetylglucosamines attached to N1017
notes: TRPM2 of Nematostella vectensis, full-length protein; synthesized gene; the C-terminal NUDT9H domain is residues 1271-1551; model holds residues 6-23, 41-51, 86-546, 573-755, 812-1136 and 1148-1210; the NUDT9H domain is present in the protein but not seen in the map; also called nvTRPM2; not shown: GFP, C-terminal, cleaved
With B1, the “stoichiometry N” value worked out at 4.
